Series [1] concerns the target recombinant AMY3 (α-amylase3) lacking the chloroplast transit peptide, purified (Arabidopsis) (UniProt Q94A41). Nature of the series: SEC-MALS + other: SAXS.
The series “cross-linking” deals with the molecule itself. Put plainly: cross-linking.

The values below come from publication PMC11326238 (bioRxiv, 2024).

For the molecule “recombinant BAM9 (β-amylase9), purified (from UniProt Q8VYW2 1-536) (natural protein)”, the stoichiometry N (BAM9 per AMY3 (heterodimer)) in series [1] came out at 1.

B1: recombinant AMY3 (α-amylase3) lacking the chloroplast transit peptide, purified (enzyme, Arabidopsis, UniProt Q94A41 56-887, looked up)
chain: SMNKSPVAIRATSSDTAVVETAQSDDVIFKEIFPVQRIEKAEGKIYVRLKEVKEKNWELSVGCSIPGKWILHWGVSYVGDTGSEWDQPPEDMRPPGSIAIKDYAIETPLKKLSEGDSFFEVAINLNLESSVAALNFVLKDEETGAWYQHKGRDFKVPLVDDVPDNGNLIGAKKGFGALGQLSNIPLKQDKSSAETDSIEERKGLQEFYEEMPISKRVADDNSVSVTARKCPETSKNIVSIETDLPGDVTVHWGVCKNGTKKWEIPSEPYPEETSLFKNKALRTRLQRKDDGNGSFGLFSLDGKLEGLCFVLKLNENTWLNYRGEDFYVPFLTSSSSPVETEAAQVSKPKRKTDKEVSASGFTKEIITEIRNLAIDISSHKNQKTNVKEVQENILQEIEKLAAEAYSIFRSTTPAFSEEGVLEAEADKPDIKISSGTGSGFEILCQGFNWESNKSGRWYLELQEKADELASLGFTVLWLPPPTESVSPEGYMPKDLYNLNSRYGTIDELKDTVKKFHKVGIKVLGDAVLNHRCAHFKNQNGVWNLFGGRLNWDDRAVVADDPHFQGRGNKSSGDNFHAAPNIDHSQDFVRKDIKEWLCWMMEEVGYDGWRLDFVRGFWGGYVKDYMDASKPYFAVGEYWDSLSYTYGEMDYNQDAHRQRIVDWINATSGAAGAFDVTTKGILHTALQKCEYWRLSDPKGKPPGVVGWWPSRAVTFIENHDTGSTQGHWRFPEGKEMQGYAYILTHPGTPAVFFDHIFSDYHSEIAALLSLRNRQKLHCRSEVNIDKSERDVYAAIIDEKVAMKIGPGHYEPPNGSQNWSVAVEGRDYKVWETS
Regarding B1, the “stoichiometry N” value in “cross-linking” stood at 2.

By stoichiometry N is commonly meant the number of molecules, sites or subunits per partner or assembly.
